Assays:
[1] = biological target: biotinylated monomeric hMPV B2 F protein (human metapneumovirus (subgroup B2)); assay: BLI
[2] = biological target: trypsinized trimeric hMPV B2 F (human metapneumovirus (subgroup B2)); assay: SEC

| Kd [1] [nM] | Substance | stoichiometry N [2] |
| --- | --- | --- |
| 430 | 101F Fab | – |
| – | trypsinized trimeric hMPV B2 F (natural protein) | 3 |
